From article PMC4749145 (Biochemistry, 2015) come the findings set out here.

Data set [1] concerns the target T1, arylalkylamine N-acetyltransferase like 7 (AANATL7) (Drosophila melanogaster, UniProt Q9W4Y1). As to the kind of experiment: dead-end inhibition kinetics. Format: biochemical.
The target of data set [2] is T1, arylalkylamine N-acetyltransferase like 7 (AANATL7). The data set is described as follows: intrinsic protein fluorescence quenching. The data set is classed as binding.
Data set [3] deals with arylalkylamine N-acetyltransferase like 7 (AANATL7) (Drosophila melanogaster, UniProt Q9W4Y1, R138A). As to the kind of experiment: intrinsic protein fluorescence quenching. Format: binding.
Substrate in data set [4]: CC(=O)SCCNC(=O)CCNC(=O)[C@H](O)C(C)(C)COP(=O)(O)OP(=O)(O)OC[C@H]1O[C@@H](n2cnc3c(N)ncnc32)[C@H](O)[C@@H]1OP(=O)(O)O
The data set is described as follows: purified protein. The note with it: binds first in ordered sequential mechanism; pH 8.0.

Substrate in data set [5]: CCCC(=O)SCCNC(=O)CCNC(=O)[C@H](O)C(C)(C)COP(=O)(O)OP(=O)(O)OC[C@H]1O[C@@H](n2cnc3c(N)ncnc32)[C@H](O)[C@@H]1OP(=O)(O)O
As to the kind of experiment: steady-state kinetics, Km,app. Format: biochemical, Drosophila melanogaster. The note with it: pH 8.0.

Substrate in data set [6]: NCCc1ccc(O)cc1
The data set is described as follows: steady-state kinetics, Km,app. The data set is classed as biochemical, Drosophila melanogaster. The note with it: acetyl-CoA; pH 8.0.

Substrate in data set [7]: NCCc1c[nH]c2ccc(OCc3ccccc3)cc12
As to the kind of experiment: steady-state kinetics, Km,app. The data set is classed as biochemical, Drosophila melanogaster. The following applies: acetyl-CoA; pH 8.0.

Substrate in data set [8]: NCCc1c[nH]c2ccccc12
As to the kind of experiment: steady-state kinetics, Km,app. The following applies: acetyl-CoA; pH 8.0. Format: biochemical, Drosophila melanogaster.

In the case of `CCCCCCCC/C=C\CCCCCCCC(=O)SCCNC(=O)CCNC(=O)[C@H](O)C(C)(C)COP(=O)(O)OP(=O)(O)OC[C@H]1O[C@@H](n2cnc3c(N)ncnc32)[C@H](O)[C@@H]1OP(=O)(O)O` [oleoyl-CoA], in data set [1], the affinity corresponds to a Ki of 0.2 ± 0.01 µM.
Regarding `CC(C)(COP(=O)(O)OP(=O)(O)OC[C@H]1O[C@@H](n2cnc3c(N)ncnc32)[C@H](O)[C@@H]1OP(=O)(O)O)[C@@H](O)C(=O)NCCC(=O)NCCS` [coenzyme A], the equilibrium dissociation constant (Kd) in data set [2] is 530 ± 110 µM; in data set [3], 1100 ± 200 µM.
Take `OCCc1ccc(O)cc1` [tyrosol]: the affinity in data set [1] corresponds to a Ki of 430 ± 20 µM.

B1: arylalkylamine N-acetyltransferase like 7 (AANATL7) (Drosophila melanogaster) (protein)
chain: MEYKMIAPEHSEQVMEHLRRNFFADEPLNKAAGLCQNGSSCPALEAHCAEAIQHRMSVMAVDAKEKDTLKIVGVVLNGILKPGDTAKALSKLDCNDDADFRKIFDLLHRHNLKHNLFEHFDVDCMFDVRILSVDSCYRGQGIANELVKRSVAVAKKNGFRLLKADATGIFSQKIFRSHGFEVFSEQPYSKYTDENGKVILPVEAPHIKLQQLYKAICADDQDEKKQSL
Regarding B1, the Km in data set [4] amounted to 29 ± 2 µM; in data set [5], 6 ± 1 µM; in data set [6], 42 ± 2 µM; in data set [7], 9 ± 1 µM; in data set [8], 26 ± 2 µM. Besides, the kcat was 32 s⁻¹ in data set [4], 0.66 ± 0.02 s⁻¹ in data set [5], 5.7 ± 0.1 s⁻¹ in data set [7] and 16 ± 0.3 s⁻¹ in data set [8]. For the same molecule, the catalytic efficiency (kcat/Km) worked out at 1.1e+06 M⁻¹ s⁻¹ in data set [4], 110000 ± 20000 M⁻¹ s⁻¹ in data set [5], 630000 ± 40000 M⁻¹ s⁻¹ in data set [7] and 600000 ± 40000 M⁻¹ s⁻¹ in data set [8].
